# According to patent US20240376151A1, “STAPLED PEPTIDES AND METHODS THEREOF” (FOG PHARMACEUTICALS, INC., priority 2022, published 2024):
# Numbered stars: 1 amine (or outer) side, 2 acyl side, 3 side chain; on linkers, the order of the positions; unused ones are H or OH. Bridge positions count the residues as written; N and C are the ends. Ends that are not written are not given here. Phenylene(1,4-NHCOCH2)2 = O=C(C[*:1])Nc1ccc(NC(=O)C[*:2])cc1
# Columns and labels:
# MDM2 = biological target: T1, MDM2 (Homo sapiens, UniProt Q00987); assay: Naive Library Presenter Screening (phage, NGS), MDM2; format: binding; details: MDM2 clusters (C82, C85); for interaction data, BLANK: Blank = Media only; for interaction data at Target Concentration 10: target concentration 10 nM; for interaction data at Target Concentration 30: target concentration 30 nM; for interaction data at Target Concentration 100: target concentration 100 nM; for interaction data at Target Concentration 300: target concentration 300 nM; for interaction data at Target Concentration 1000: target concentration 1000 nM
# T1 construct: made in house
# T1 sequence (Q00987 25-109): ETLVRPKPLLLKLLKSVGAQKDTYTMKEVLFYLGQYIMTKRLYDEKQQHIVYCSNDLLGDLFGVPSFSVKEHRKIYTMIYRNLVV
# CHIP = biological target: T2, CHIP (Homo sapiens, UniProt Q9UNE7); assay: Naive Library Presenter Screening (phage, NGS), CHIP; format: binding; details: for interaction data, BLANK: Blank = Media only
# T2 construct: N-term truncated CHIP (also known as STUB1, Uniprot ID: Q9UNE7, residues 23-303); made in house; host or cells: E. coli BL21 CodonPlus
# T2 sequence (Q9UNE7 23-303): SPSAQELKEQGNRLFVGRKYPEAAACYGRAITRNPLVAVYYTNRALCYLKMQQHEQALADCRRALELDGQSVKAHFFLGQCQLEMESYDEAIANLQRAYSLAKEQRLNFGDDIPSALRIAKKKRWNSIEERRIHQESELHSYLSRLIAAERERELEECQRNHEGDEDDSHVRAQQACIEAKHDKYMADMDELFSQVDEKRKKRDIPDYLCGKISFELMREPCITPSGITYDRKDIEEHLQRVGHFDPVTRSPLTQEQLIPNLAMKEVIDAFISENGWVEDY
# Procedure: To conduct phage library screening, previously described procedures were utilized in accordance with the present disclosure.
# Next-generation sequencing was performed as described in accordance with the present disclosure.
# Hit ID and Clustering is performed according to a described procedure in accordance with the present disclosure.
# [1] = CHIP clusters (C83, C84), first column
# [2] = CHIP clusters (C83, C84), second column
# [3] = CHIP clusters (C83, C84), target concentration 10 nM
# [4] = CHIP clusters (C83, C84), target concentration 30 nM
# [5] = CHIP clusters (C83, C84), target concentration 100 nM
# [6] = CHIP clusters (C83, C84), target concentration 300 nM
# [7] = CHIP clusters (C83, C84), target concentration 1000 nM, first column
# [8] = CHIP clusters (C83, C84), target concentration 1000 nM, second column
# [9] = CHIP target concentration 10 nM
# [10] = CHIP target concentration 30 nM
# [11] = CHIP target concentration 100 nM
# [12] = CHIP target concentration 300 nM
# [13] = CHIP target concentration 1000 nM, first column
# [14] = CHIP target concentration 1000 nM, second column
"interaction data, BLANK (CHIP; [1])","interaction data, BLANK (CHIP; [2])",interaction data at Target Concentration 10 (CHIP; [3]),interaction data at Target Concentration 30 (CHIP; [4]),interaction data at Target Concentration 100 (CHIP; [5]),interaction data at Target Concentration 300 (CHIP; [6]),interaction data at Target Concentration 1000 (CHIP; [7]),interaction data at Target Concentration 1000 (CHIP; [8]),Sequence,also measured
–,–,–,–,–,–,–,–,"DPAVTECFQAAWRCMVM (linker 7-14 via Phenylene(1,4-NHCOCH2)2 (inferred); not fully specified (C-terminus))","interaction data, BLANK (MDM2; first column): 0; interaction data, BLANK (MDM2; second column): 0; interaction data at Target Concentration 10 (MDM2): 0; interaction data at Target Concentration 30 (MDM2): 77; interaction data at Target Concentration 100 (MDM2): 184; interaction data at Target Concentration 300 (MDM2): 276; interaction data at Target Concentration 1000 (MDM2; first column): 269; interaction data at Target Concentration 1000 (MDM2; second column): 268"
–,–,–,–,–,–,–,–,"DPAINTCQDAAFWCYWS (linker 7-14 via Phenylene(1,4-NHCOCH2)2 (inferred))","interaction data, BLANK (MDM2; first column): 0; interaction data, BLANK (MDM2; second column): 0; interaction data at Target Concentration 10 (MDM2): 0; interaction data at Target Concentration 30 (MDM2): 131; interaction data at Target Concentration 100 (MDM2): 203; interaction data at Target Concentration 300 (MDM2): 226; interaction data at Target Concentration 1000 (MDM2; first column): 185; interaction data at Target Concentration 1000 (MDM2; second column): 315"
–,–,–,–,–,–,–,–,"DPASADCFNAAWDCMWI (DPASADCFNAAWDCMWI-NH2; linker 7-14 via Phenylene(1,4-NHCOCH2)2 (inferred))","interaction data, BLANK (MDM2; first column): 0; interaction data, BLANK (MDM2; second column): 0; interaction data at Target Concentration 10 (MDM2): 0; interaction data at Target Concentration 30 (MDM2): 19; interaction data at Target Concentration 100 (MDM2): 102; interaction data at Target Concentration 300 (MDM2): 165; interaction data at Target Concentration 1000 (MDM2; first column): 124; interaction data at Target Concentration 1000 (MDM2; second column): 209"
0,0,0,0,19,15,23,24,"DPAIIWCSQAASICTVD (linker 7-14 via Phenylene(1,4-NHCOCH2)2 (inferred))",–
–,–,–,–,–,–,–,–,"PCWSAWLACEL (linker 2-9 via Phenylene(1,4-NHCOCH2)2 (inferred))",interaction data at Target Concentration 10 (CHIP; [9]): 0; interaction data at Target Concentration 30 (CHIP; [10]): 81; interaction data at Target Concentration 100 (CHIP; [11]): 72; interaction data at Target Concentration 300 (CHIP; [12]): 130; interaction data at Target Concentration 1000 (CHIP; [13]): 220; interaction data at Target Concentration 1000 (CHIP; [14]): 206
0,0,0,0,1,17,7,32,"DPAETFCWDAADICMVD (linker 7-14 via Phenylene(1,4-NHCOCH2)2 (inferred))",–
0,0,0,0,0,18,13,22,"DPAELFCTEAADICMVD (linker 7-14 via Phenylene(1,4-NHCOCH2)2 (inferred))",–
–,–,–,–,–,–,–,–,"ICYNAWLECA (linker 2-9 via Phenylene(1,4-NHCOCH2)2 (inferred))",interaction data at Target Concentration 10 (CHIP; [9]): 0; interaction data at Target Concentration 30 (CHIP; [10]): 1; interaction data at Target Concentration 100 (CHIP; [11]): 5; interaction data at Target Concentration 300 (CHIP; [12]): 7; interaction data at Target Concentration 1000 (CHIP; [13]): 11; interaction data at Target Concentration 1000 (CHIP; [14]): 9
–,–,–,–,–,–,–,–,"ICYNAWFECE (linker 2-9 via Phenylene(1,4-NHCOCH2)2 (inferred))",interaction data at Target Concentration 10 (CHIP; [9]): 0; interaction data at Target Concentration 30 (CHIP; [10]): 2; interaction data at Target Concentration 100 (CHIP; [11]): 9; interaction data at Target Concentration 300 (CHIP; [12]): 11; interaction data at Target Concentration 1000 (CHIP; [13]): 18; interaction data at Target Concentration 1000 (CHIP; [14]): 14
–,–,–,–,–,–,–,–,"ICWAAWVSCS (linker 2-9 via Phenylene(1,4-NHCOCH2)2 (inferred))",interaction data at Target Concentration 10 (CHIP; [9]): 0; interaction data at Target Concentration 30 (CHIP; [10]): 0; interaction data at Target Concentration 100 (CHIP; [11]): 0; interaction data at Target Concentration 300 (CHIP; [12]): 25; interaction data at Target Concentration 1000 (CHIP; [13]): 42; interaction data at Target Concentration 1000 (CHIP; [14]): 17
0,0,0,0,0,3,8,5,"DPAFTACQFAAAMCDSS (linker 7-14 via Phenylene(1,4-NHCOCH2)2 (inferred))",–
0,0,0,0,4,6,11,8,"DPAFWSCQFAAATCSHL (linker 7-14 via Phenylene(1,4-NHCOCH2)2 (inferred))",–
0,0,0,0,0,15,7,29,"DPAMWHCQYAAIMCNAN (DPAMWHCQYAAIMCNAN-NH2; linker 7-14 via Phenylene(1,4-NHCOCH2)2 (inferred))",–
0,0,0,0,3,14,26,10,"DPALEECTQAAHICMVD (linker 7-14 via Phenylene(1,4-NHCOCH2)2 (inferred); not fully specified (C-terminus))",–
0,0,0,0,0,31,28,27,"DPAINMCYRAAQICDVD (linker 7-14 via Phenylene(1,4-NHCOCH2)2 (inferred))",–
–,–,–,–,–,–,–,–,"PMCSDAWLFCE (linker 3-10 via Phenylene(1,4-NHCOCH2)2 (inferred))",interaction data at Target Concentration 10 (CHIP; [9]): 0; interaction data at Target Concentration 30 (CHIP; [10]): 0; interaction data at Target Concentration 100 (CHIP; [11]): 0; interaction data at Target Concentration 300 (CHIP; [12]): 74; interaction data at Target Concentration 1000 (CHIP; [13]): 143; interaction data at Target Concentration 1000 (CHIP; [14]): 57
0,0,0,3,0,6,19,28,"DPAFTRCQFAAAVCNFT (linker 7-14 via Phenylene(1,4-NHCOCH2)2 (inferred))",–
